The record followed here is the Immune Epitope Database (IEDB).

For assay [1], the target named is HLA-A*01:01. In words: IEDB peptide-MHC binding, purified MHC/competitive/radioactivity; ≥ and ≤ were set here for values at or beyond the usual limits of such assays. The following applies: source organism: Homo sapiens.
Assay [2] concerns the target HLA-A*01:01. Description: IEDB peptide-MHC binding, purified MHC/direct/fluorescence; filed as Kd, often an IC50 or EC50 that approximates it; ≥ and ≤ were set here for values at or beyond the usual limits of such assays.
Assay [3] addresses HLA-B*15:01. The assay is described as above.
Assay [4] concerns the target HLA-A*11:01. The description is as above.
Assay [5] concerns the target HLA-A*02:01. Description: IEDB peptide-MHC binding, purified MHC/competitive/fluorescence; filed as Kd, often an IC50 or EC50 that approximates it; ≥ and ≤ were set here for values at or beyond the usual limits of such assays. The following applies: source organism: Yersinia pseudotuberculosis IP 31758.
The target in assay [6] is HLA-B*40:13. The description is as above.
Assay [7] has as its target HLA-C*06:02. The description is as above. The following applies: source organism: Yersinia pseudotuberculosis IP 31758.
Assay [8] has as its target HLA-B*27:20. The assay is described as above.
The target of assay [9] is HLA-A*32:07. The assay is described as above.
Assay [10] has as its target HLA-B*83:01. The description is as above.
Assay [11] has as its target HLA-B*15:42. The assay is described as above.
Assay [12] deals with HLA-B*45:06. The description is as above.
Assay [13] concerns the target HLA-C*14:02. In words: IEDB peptide-MHC binding, purified MHC/direct/fluorescence; filed as Kd, often an IC50 or EC50 that approximates it; ≥ and ≤ were set here for values at or beyond the usual limits of such assays. The following applies: source organism: Yersinia pseudotuberculosis IP 31758.
Assay [14] has as its target HLA-C*15:02. Described as above. The following applies: source organism: Yersinia pseudotuberculosis IP 31758.
The target in assay [15] is HLA-C*04:01. In words: IEDB peptide-MHC binding, purified MHC/competitive/fluorescence; filed as Kd, often an IC50 or EC50 that approximates it; ≥ and ≤ were set here for values at or beyond the usual limits of such assays. The following applies: source organism: Escherichia coli HS.
Assay [16] deals with HLA-C*14:02. The description is as above. The following applies: source organism: Escherichia coli HS.
For assay [17], the target named is HLA-A*32:15. Described as above. The following applies: source organism: Escherichia coli HS.
The target in assay [18] is HLA-B*48:01. The assay is described as above. The following applies: source organism: Escherichia coli HS.
For assay [19], the target named is HLA-C*06:02. In words: IEDB peptide-MHC binding, purified MHC/direct/fluorescence; filed as Kd, often an IC50 or EC50 that approximates it; ≥ and ≤ were set here for values at or beyond the usual limits of such assays. The following applies: source organism: Escherichia coli HS.
The target in assay [20] is HLA-C*12:03. Described as above. The following applies: source organism: Escherichia coli HS.
In assay [21] the target is HLA-C*03:03. The assay is described as above. The following applies: source organism: Escherichia coli HS.
Assay [22] addresses HLA-C*07:02. The description is as above. The following applies: source organism: Escherichia coli HS.
For assay [23], the target named is HLA-A*02:50. Description: IEDB peptide-MHC binding, purified MHC/competitive/fluorescence; filed as Kd, often an IC50 or EC50 that approximates it; ≥ and ≤ were set here for values at or beyond the usual limits of such assays.
Assay [24] deals with HLA-A*03:01. In words: IEDB peptide-MHC binding, purified MHC/direct/fluorescence; filed as Kd, often an IC50 or EC50 that approximates it; ≥ and ≤ were set here for values at or beyond the usual limits of such assays.
Assay [25] has as its target HLA-A*26:01. The assay is described as above.
For assay [26], the target named is HLA-B*27:05. The assay is described as above.
The target of assay [27] is HLA-B*07:02. Described as above.
Assay [28] addresses HLA-A*02:01. The description is as above.
Assay [29] addresses HLA-A*31:01. Described as above.
Assay [30] addresses HLA-B*58:01. Described as above.
Assay [31] concerns the target HLA-B*40:01. Described as above.
Assay [32] concerns the target HLA-A*69:01. The assay is described as above.
Assay [33] has as its target HLA-A*24:03. The assay is described as above. The following applies: source organism: Klebsiella pneumoniae.
In assay [34] the target is HLA-B*08:01. The description is as above. The following applies: source organism: Klebsiella pneumoniae.
Assay [35] concerns the target HLA-A*02:06. Described as above. The following applies: source organism: Giardia lamblia ATCC 50803.
The target of assay [36] is HLA-A*02:16. Described as above. The following applies: source organism: Giardia lamblia ATCC 50803.
The target in assay [37] is HLA-B*46:01. Described as above. The following applies: source organism: Giardia lamblia ATCC 50803.
Assay [38] has as its target HLA-A*02:11. The assay is described as above. The following applies: source organism: Giardia lamblia ATCC 50803.
In assay [39] the target is HLA-B*08:02. The assay is described as above. The following applies: source organism: Giardia lamblia ATCC 50803.
The target of assay [40] is HLA-A*02:12. The assay is described as above. The following applies: source organism: Giardia lamblia ATCC 50803.
For assay [41], the target named is HLA-A*02:19. Described as above. The following applies: source organism: Giardia lamblia ATCC 50803.
Assay [42] addresses HLA-B*18:01. The description is as above. The following applies: source organism: Giardia lamblia ATCC 50803.
Assay [43] concerns the target HLA-B*44:02. Described as above. The following applies: source organism: Giardia lamblia ATCC 50803.
Assay [44] addresses HLA-A*24:02. Described as above. The following applies: source organism: Giardia lamblia ATCC 50803.
The mark [45] stands for this setting: source organism: Yersinia pseudotuberculosis IP 31758.
Setting [46] is: source organism: Escherichia coli HS.
Setting [47] is: source organism: Klebsiella pneumoniae.
Where [48] appears, read: source organism: Giardia lamblia ATCC 50803.

Regarding IVDCLTEMY, the concentration for half-maximal inhibition (IC50) in [1] turned out to be 7 nM. The Kd in assay [2] (source organism: Homo sapiens) was 164 nM; in [3] (source organism: Homo sapiens), 1090 nM; in assay [4] (source organism: Homo sapiens), 2020 nM.
Consider FQWWRSHPL, for which the dissociation constant (Kd) was at most 0.1 nM in assay [5]; 1.3 nM in [6] (setting [45]); 837 nM in assay [7]; at most 0.1 nM in assay [8] (setting [45]); 73.6 nM in assay [9] (setting [45]); 475 nM in assay [10] (setting [45]). Also, the dissociation constant Kd in [11] (setting [45]) was at least 5000 nM; in assay [12] (setting [45]), at least 5000 nM; in [13] it was 232 nM; in assay [14], 1400 nM.
For the sequence MMWATAQAL, the Kd in assay [15] was at least 5000 nM; in assay [16], 6.4 nM; in [6] (setting [46]) it was 212 nM; in assay [8] (setting [46]), 6.4 nM; in [9] (setting [46]), 42 nM; in assay [10] (setting [46]) it was at least 5000 nM. Further, the Kd in [17] was 391 nM; in [11] (setting [46]), at least 5000 nM; in assay [12] (setting [46]), at least 5000 nM; in assay [18], 242 nM; in assay [19], at least 20000 nM; in assay [20], 1640 nM. Also, the results for the equilibrium dissociation constant (Kd) in assay [21] and in assay [22] were 337 nM and 572 nM, respectively.
On to LLQEKYGLI, for which the dissociation constant (Kd) in assay [23] (setting [47]) is 17.7 nM; in assay [24] (setting [47]), at least 20000 nM; in assay [25] (setting [47]), at least 20000 nM; in [2] (setting [47]) it was at least 20000 nM; in [3] (setting [47]) it was at least 20000 nM; in [26] (setting [47]) it was at least 20000 nM. Further, the dissociation constant (Kd) in [27] (setting [47]) is at least 20000 nM; in [28] (setting [47]) it was 1180 nM; in assay [29] (setting [47]), at least 20000 nM; in assay [30] (setting [47]), at least 20000 nM; in assay [31] (setting [47]), at least 20000 nM; in assay [32] (setting [47]), at least 20000 nM. Further, the figures for the dissociation constant Kd in [33], in assay [34] and in [4] (setting [47]) were at least 20000 nM, 7890 nM and at least 20000 nM, respectively.
As to YLDMVLAFL, the Kd in [23] (setting [48]) was at most 0.1 nM; in assay [35], at most 1 nM; in [24] (setting [48]), at least 20000 nM; in assay [25] (setting [48]), at least 20000 nM; in assay [2] (setting [48]) it was at least 20000 nM; in assay [3] (setting [48]), at least 20000 nM. Further, the Kd in assay [36] is at most 1 nM; in assay [26] (setting [48]) it was at least 20000 nM; in assay [27] (setting [48]) it was at least 20000 nM; in [37], at least 20000 nM; in assay [28] (setting [48]), 18.5 nM; in [29] (setting [48]) it was at least 20000 nM. For the same sequence, the Kd was at most 1 nM in [38]; at least 20000 nM in [30] (setting [48]); at least 20000 nM in assay [39]; at least 20000 nM in [31] (setting [48]); at most 1 nM in assay [40]; at least 20000 nM in [32] (setting [48]). Besides, the Kd in assay [41] was at most 1 nM; in [42], at least 20000 nM; in [43], at least 20000 nM; in assay [4] (setting [48]), at least 20000 nM; in [44], at least 20000 nM.
